This series in a line: protein stability index of a GFP-peptide fusion (GPS, HEK-293T) (PSI 1-6); higher = more stable. Particulars: c terminus: a fixed tail appended.

± gives the standard deviation.

The values below come from the supplement of paper PMC10567573.
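Also: 24-mer peptide tiles fused after GFP, lentivirally expressed, FACS-sorted into six equal bins by GFP/DsRed ratio, decoded by Illumina sequencing, PSI is the read-weighted mean bin number.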

As for PEWDTVTPEAKDLINKMLTINPSK [CAMK2A], the protein stability index (treatment: DMSO) was found to be 4.886 ± 0.036 and the protein stability index (treatment: MLN4924 1 uM, 8 h) came to 5.03 ± 0.12.
The like results for PFDMDSCLSRHSINPYSNRESRIL [DFFB] were, in that order, 3.24 ± 0.29 and 3.22 ± 0.29.
In the same order, the values of PFIVFGATGLTSGLLSLLLPETLN [SLC22A15] are 3.19 ± 0.49 and 3.14 ± 0.42.
In the same order, the values of PGEFSDASMSPDATKPSHWCSVAY [SMAD6] are 3.07 ± 0.14 and 3.14 ± 0.19.
With PGHGGIMDRFDCQYLMATFVHVYI [CDS1], the protein stability index runs as follows: (treatment: DMSO) 3.26 ± 0.46; (treatment: MLN4924 1 uM, 8 h) 3.1 ± 0.3.
As for PGHIGPPGPTGPKGISGHPGEKGE [EMID1], the protein stability index (treatment: DMSO) was found to be 5.59 ± 0.17 and the protein stability index (treatment: MLN4924 1 uM, 8 h) worked out at 5.07 ± 0.35.
The like results for PGPVCQPPVSQSRSLFSSVPSKPP [ANKRD40] were, in that order, 4.34 ± 0.39 and 4.54 ± 0.48.
The like results for PISAIRHEGKTDSERTDTAADGET [EPB41L3] were, in that order, 5.71 ± 0.19 and 5.74 ± 0.078.
For the sequence PKGRFERKRNPSRKKQHICDECGK [ZNF24], the protein stability index (treatment: DMSO) stood at 3.82 ± 0.49.
Consider PKVSDQALVSAHSEWQRKLEAAEA [DMRTC1], for which the protein stability index is, setting by setting: (treatment: DMSO) 4.54 ± 0.23; (treatment: MLN4924 1 uM, 8 h) 4.66 ± 0.29.
The like results for PLLKMDLNSEQAEQLERINDALSC [FAM98B] were, in that order, 4.29 ± 0.24 and 4.36 ± 0.1.
The like results for PLLSNTFTETNNHWPQGPTGPPGP [EMID1] were, in that order, 3.53 ± 0.33 and 4.08 ± 0.14.
The like results for PLSSQPQAIVTEDKTDISSGRARQ [MLH1] were, in that order, 4.99 ± 0.14 and 5.15 ± 0.23.
With PLVEKKRRARINESLQELRLLLAG [HES6], the protein stability index reads like this: (treatment: DMSO) 2.63 ± 0.6; (treatment: MLN4924 1 uM, 8 h) 2.75 ± 0.73.
Take PLVLTEVLFNEKIREQIKKYRRHF [EIF5]: the protein stability index (treatment: DMSO) was 2.31 ± 0.35 and the protein stability index (treatment: MLN4924 1 uM, 8 h) amounted to 2.28 ± 0.33.
Consider PMKKNNNLYSWDDFMELGRSIPDT [ACSBG2], for which the protein stability index by setting is: (treatment: DMSO) 3.74 ± 0.24; (treatment: MLN4924 1 uM, 8 h) 3.77 ± 0.3.
The like results for PMVLMIIVMCVQIKCFHEIITIGY [CDS2] were, in that order, 3.01 ± 0.43 and 3.14 ± 0.66.
The sequence PNALIASLALGDLIYVVIDLPINV [EDNRA] showed a protein stability index (treatment: DMSO) of 3.12 ± 0.42 and a protein stability index (treatment: MLN4924 1 uM, 8 h) of 3.03 ± 0.35.
The like results for PPENSDSGTGKKEKEKKNRKGKDK [EIF5] were, in that order, 5.58 ± 0.21 and 5.48 ± 0.28.
The like results for PPLSGALASITETIQVHRRYWRSL [HDAC6] were, in that order, 2.99 ± 0.33 and 3.15 ± 0.4.
Turning to PPPLPNHKYNTTSTSYSPLASLPL [PLAGL1], the protein stability index runs as follows: (treatment: DMSO) 3.29 ± 0.17; (treatment: MLN4924 1 uM, 8 h) 3.33 ± 0.091.
The like results for PPPPPLPDPTPPEPEEEILGSDDE [SRPK2] were, in that order, 5.51 ± 0.23 and 5.63 ± 0.19.
In the same order, the values of PPRREPLPSRRDVYLSPRDDGYST [RBMX] are 4.09 ± 0.16 and 4.23 ± 0.29.
In the same order, the values of PSGSSGSLSTSSSSSPPGTPSPAD [CEBPB] are 5.53 ± 0.31 and 5.46 ± 0.069.
For the sequence PSPPAAPSVADNLLASSDAALSAS [SERTAD1], the protein stability index was 5.25 ± 0.21 (treatment: DMSO) and 5.25 ± 0.094 (treatment: MLN4924 1 uM, 8 h).
The like results for PSSFDPSMLLQRFSVAPHETQTQR [RNF180] were, in that order, 4.12 ± 0.14 and 3.95 ± 0.13.
In the same order, the values of PTKADTEKWAEGGGHSRERADEPQ [CHGB] are 5.46 ± 0.32 and 5.36 ± 0.19.
As for PTTGRVYESDSSNHCMLSPSSSGH [C18orf25], the protein stability index was 4.24 ± 0.24 (treatment: DMSO) and 4.52 ± 0.052 (treatment: MLN4924 1 uM, 8 h).
In the same order, the values of PTYKGLLMSLQNQLKESKSKIDAL [CEP70] are 2.45 ± 0.22 and 2.86 ± 0.19.
